{"source": "IntAct's records for PubMed 31515488", "parents": {"B1": {"name": "Scaffold protein ILK (Homo sapiens), Q13418 (parent)", "chain": "MDDIFTQCREGNAVAVRLWLDNTENDLNQGDDHGFSPLHWACREGRSAVVEMLIMRGARINVMNRGDDTPLHLAASHGHRDIVQKLLQYKADINAVNEHGNVPLHYACFWGQDQVAEDLVANGALVSICNKYGEMPVDKAKAPLRELLRERAEKMGQNLNRIPYKDTFWKGTTRTRPRNGTLNKHSGIDFKQLNFLTKLNENHSGELWKGRWQGNDIVVKVLKVRDWSTRKSRDFNEECPRLRIFSHPNVLPVLGACQSPPAPHPTLITHWMPYGSLYNVLHEGTNFVVDQSQAVKFALDMARGMAFLHTLEPLIPRHALNSRSVMIDEDMTARISMADVKFSFQCPGRMYAPAWVAPEALQKKPEDTNRRSADMWSFAVLLWELVTREVPFADLSNMEIGMKVALEGLRPTIPPGISPHVCKLMKICMNEDPAKRPKFDMIVPILEKMQDK", "partner": "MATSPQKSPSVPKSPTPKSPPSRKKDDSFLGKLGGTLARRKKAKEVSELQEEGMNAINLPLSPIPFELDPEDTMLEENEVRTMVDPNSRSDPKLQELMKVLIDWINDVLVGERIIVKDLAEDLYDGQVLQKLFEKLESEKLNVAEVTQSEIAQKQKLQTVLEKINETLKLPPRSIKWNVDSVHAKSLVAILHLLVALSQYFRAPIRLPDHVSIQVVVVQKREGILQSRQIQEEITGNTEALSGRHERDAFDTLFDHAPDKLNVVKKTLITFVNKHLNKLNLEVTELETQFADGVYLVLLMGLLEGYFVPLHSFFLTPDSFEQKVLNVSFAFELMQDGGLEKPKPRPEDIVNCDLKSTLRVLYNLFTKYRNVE"}, "B2": {"name": "Keratin, type II cytoskeletal 79 (Homo sapiens), Q5XKE5 (parent)", "chain": "MRSSVSRQTYSTKGGFSSNSASGGSGSQARTSFSSVTVSRSSGSGGGAHCGPGTGGFGSRSLYNLGGHKSISVSVAGGALLGRALGGFGFGSRAFMGQGAGRQTFGPACPPGGIQEVTVNQSLLTPLHVEIDPEIQRVRTQEREQIKTLNNKFASFIDKVRFLEQQNKVLETKWALLQEQGQNLGVTRNNLEPLFEAYLGSMRSTLDRLQSERGRLDSELRNVQDLVEDFKNKYEDEINKHTAAENEFVVLKKDVDAAYMGRMDLHGKVGTLTQEIDFLQQLYEMELSQVQTHVSNTNVVLSMDNNRNLDLDSIIAEVKAQYELIAQRSRAEAEAWYQTKYEELQVTAGKHGDNLRDTKNEIAELTRTIQRLQGEADAAKKQCQQLQTAIAEAEQRGELALKDAQKKLGDLDVALHQAKEDLTRLLRDYQELMNVKLALDVEIATYRKLLESEESRMSGECPSAVSISVTGNSTTVCGGGAASFGGGISLGGSGGATKGGFSTNVGYSTVKGGPVSAGTSILRKTTTVKTSSQRY", "partner": "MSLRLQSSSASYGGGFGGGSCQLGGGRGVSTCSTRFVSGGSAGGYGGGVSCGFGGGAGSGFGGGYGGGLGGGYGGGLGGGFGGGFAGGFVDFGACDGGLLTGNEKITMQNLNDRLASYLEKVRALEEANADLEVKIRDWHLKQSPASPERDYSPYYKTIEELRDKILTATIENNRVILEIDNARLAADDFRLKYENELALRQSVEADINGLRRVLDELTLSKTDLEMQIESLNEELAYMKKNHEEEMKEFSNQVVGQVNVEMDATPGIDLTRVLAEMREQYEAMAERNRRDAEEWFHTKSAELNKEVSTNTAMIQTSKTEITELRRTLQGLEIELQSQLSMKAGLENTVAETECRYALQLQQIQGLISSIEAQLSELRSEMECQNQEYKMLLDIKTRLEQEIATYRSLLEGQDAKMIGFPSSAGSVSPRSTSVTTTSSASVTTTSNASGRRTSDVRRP"}}, "data": [{"variants_of": "B1", "settings": "with parva_human PARVA", "values": [{"variant": "MDDIFTQCREGNAVAVRLWLDNTENDLNQGDDHGFSPLHWACREGRSAVVEMLIMRGARINVMNRGDDTPLHLAASHGHRDIVQKLLQYKADINAVNEHGNVPLHYACFWGQDQVAEDLVANGALVSICNKYGEMPVDKAKAPLRELLRERAEKMGQNLNRIPYKDTFWKGTTRTRPRNGTLNKHSGIDFKQLNFLTKLNENHSGELWKGRWQGNDIVVKVLKVRDWSTRKSRDFNEECPRLRIFSHPNVLPVLGACQSPPAPHPTLITHWMPYGSLHNVLHEGTNFVVDQSQAVKFALDMARGMAFLHTLEPLIPRHALNSRSVMIDEDMTARISMADVKFSFQCPGRMYAPAWVAPEALQKKPEDTNRRSADMWSFAVLLWELVTREVPFADLSNMEIGMKVALEGLRPTIPPGISPHVCKLMKICMNEDPAKRPKFDMIVPILEKMQDK", "note": "[Y278H]", "effect of a mutation on the interaction": "disrupting interaction strength"}]}, {"variants_of": "B2", "settings": "with KRT13, P13646", "values": [{"variant": "MRSSVSRQTYSTKGGFSSNSASGGSGSQACTSFSSVTVSRSSGSGGGAHCGPGTGGFGSRSLYNLGGHKSISVSVAGGALLGRALGGFGFGSRAFMGQGAGRQTFGPACPPGGIQEVTVNQSLLTPLHVEIDPEIQRVRTQEREQIKTLNNKFASFIDKVRFLEQQNKVLETKWALLQEQGQNLGVTRNNLEPLFEAYLGSMRSTLDRLQSERGRLDSELRNVQDLVEDFKNKYEDEINKHTAAENEFVVLKKDVDAAYMGRMDLHGKVGTLTQEIDFLQQLYEMELSQVQTHVSNTNVVLSMDNNRNLDLDSIIAEVKAQYELIAQRSRAEAEAWYQTKYEELQVTAGKHGDNLRDTKNEIAELTRTIQRLQGEADAAKKQCQQLQTAIAEAEQRGELALKDAQKKLGDLDVALHQAKEDLTRLLRDYQELMNVKLALDVEIATYRKLLESEESRMSGECPSAVSISVTGNSTTVCGGGAASFGGGISLGGSGGATKGGFSTNVGYSTVKGGPVSAGTSILRKTTTVKTSSQRY", "note": "[R30C]", "effect of a mutation on the interaction": "with no effect"}, {"variant": "MRSSVSRQTYSTKGGFSSNSASGGSGSQARTSFSSVTVSRSSGSGGGAHCGPGTGGFGSRSLYNLGGHKSISVSVAGGALLGRALGGFGFGSRAFMGQGAGRQTFGPACPPGGIQEVTVNQSLLTPLHVEIDPEIQRVRTQEREQIKTLNNKFASFIDKVRFLEQQNKVLETKWALLQEQGQNLGVTRNNLEPLFEAYLGSMRSTLDRLQSERGRLDSELRNVQDLVEDFKNKYEDEINKHTAAENEFVVLKKDVDAAYMGRMDLRGKVGTLTQEIDFLQQLYEMELSQVQTHVSNTNVVLSMDNNRNLDLDSIIAEVKAQYELIAQRSRAEAEAWYQTKYEELQVTAGKHGDNLRDTKNEIAELTRTIQRLQGEADAAKKQCQQLQTAIAEAEQRGELALKDAQKKLGDLDVALHQAKEDLTRLLRDYQELMNVKLALDVEIATYRKLLESEESRMSGECPSAVSISVTGNSTTVCGGGAASFGGGISLGGSGGATKGGFSTNVGYSTVKGGPVSAGTSILRKTTTVKTSSQRY", "note": "[H266R]", "effect of a mutation on the interaction": "with no effect"}, {"variant": "MRSSVSRQTYSTKGGFSSNSASGGSGSQARTSFSSVTVSRSSGSGGGAHCGPGTGGFGSRSLYNLGGHKSISVSVAGGALLGRALGGFGFGSRAFMGQGAGRQTFGPACPPGGIQEVTVNQSLLTPLHVEIDPEIQRVRTQEREQIKTLNNKFASFIDKVRFLEQQNKVLETKWALLQEQGQNLGVTRNNLEPLFEAYLGSMRSTLDRLQSERGRLYSELRNVQDLVEDFKNKYEDEINKHTAAENEFVVLKKDVDAAYMGRMDLHGKVGTLTQEIDFLQQLYEMELSQVQTHVSNTNVVLSMDNNRNLDLDSIIAEVKAQYELIAQRSRAEAEAWYQTKYEELQVTAGKHGDNLRDTKNEIAELTRTIQRLQGEADAAKKQCQQLQTAIAEAEQRGELALKDAQKKLGDLDVALHQAKEDLTRLLRDYQELMNVKLALDVEIATYRKLLESEESRMSGECPSAVSISVTGNSTTVCGGGAASFGGGISLGGSGGATKGGFSTNVGYSTVKGGPVSAGTSILRKTTTVKTSSQRY", "note": "[D217Y]", "effect of a mutation on the interaction": "with no effect"}, {"variant": "MRSSVSRQTYSTKGGFSSNSASGGSGSQARTSFSSVTVSRSSGSGGGAHCGPGTGGFGSRSLYNLGGHKSISVSVAGGALLGRALGGFGFGSRAFMGQGAGRQTFGPACPPGGIQEVTVNQSLLTPLHVEIDPEIQRVRTQEREQIKTLNNKFASFIDKVRFLEQQNKVLETKWALLQEQGQNLGVTRNNLEPLFEAYLGSMRSTLDRLQSEWGRLDSELRNVQDLVEDFKNKYEDEINKHTAAENEFVVLKKDVDAAYMGRMDLHGKVGTLTQEIDFLQQLYEMELSQVQTHVSNTNVVLSMDNNRNLDLDSIIAEVKAQYELIAQRSRAEAEAWYQTKYEELQVTAGKHGDNLRDTKNEIAELTRTIQRLQGEADAAKKQCQQLQTAIAEAEQRGELALKDAQKKLGDLDVALHQAKEDLTRLLRDYQELMNVKLALDVEIATYRKLLESEESRMSGECPSAVSISVTGNSTTVCGGGAASFGGGISLGGSGGATKGGFSTNVGYSTVKGGPVSAGTSILRKTTTVKTSSQRY", "note": "[R213W]", "effect of a mutation on the interaction": "with no effect"}, {"variant": "MRSSVSRQTYSTKGGFSSNSASGGSGSQARTSFSSVTVSRSSGSGGGAHCGPGTGGFGSRSLYNLGGHKSISVSVAGGALLGRALGGFGFGSRAFMGQGAGRQTFGPACPPGGIQEVTVNQSLLTPLHVEIDPEIQRVRTQEREQIKTLNNKFASFIDKVQFLEQQNKVLETKWALLQEQGQNLGVTRNNLEPLFEAYLGSMRSTLDRLQSERGRLDSELRNVQDLVEDFKNKYEDEINKHTAAENEFVVLKKDVDAAYMGRMDLHGKVGTLTQEIDFLQQLYEMELSQVQTHVSNTNVVLSMDNNRNLDLDSIIAEVKAQYELIAQRSRAEAEAWYQTKYEELQVTAGKHGDNLRDTKNEIAELTRTIQRLQGEADAAKKQCQQLQTAIAEAEQRGELALKDAQKKLGDLDVALHQAKEDLTRLLRDYQELMNVKLALDVEIATYRKLLESEESRMSGECPSAVSISVTGNSTTVCGGGAASFGGGISLGGSGGATKGGFSTNVGYSTVKGGPVSAGTSILRKTTTVKTSSQRY", "note": "[R161Q]", "effect of a mutation on the interaction": "with no effect"}]}]}
